Reference: patent US20220396620A1 (Takeda / Millennium, published 2022)

Assays:
[1] = target: T1, human cannabinoid receptor type 1 (CB1) (human, UniProt P21554 1-472); assay: FACS, titration on CB1 over-expressing CHO cells
T1 construct: DiscoverX cAMP Hunter CHO-K1 CNR1 Gi cells for cAMP and pERK assays; also called huCB1; huCB-1
Description: (§1) Antibody binding was tested in a fluorescence activated cell sorting (FACS)-based assay for the ability of the mouse anti-CB1 antibodies to bind parental CHO cells, human CB-1 overexpressing CHO cells and mouse CB-1 overexpressing CHO cells to obtain binding curves and EC50 values. The three cell lines were harvested, washed and dispensed at 1×10⁵ cells per well of a v-bottomed 96-well polycarbonate FACS plates (Corning, Corning, N.Y., Cat. No. 3357) in 50 μl of FACS buffer (1×PBS/2 mM EDTA and 1% FBS (ThermoFisher Scientific, Anaheim, Calif.; Cat. No. 10438-026). Serial dilutions of the antibodies were prepared at 2× concentrations starting at 200 nM and serially diluted 3-fold. The titrated antibodies were added to the plates containing the three different cell lines (parental, human and mouse CB-1 CHO cells) and incubated at 4° C. for 1 hour. The plates were washed 3× with FACS buffer. […] None of the eight functional antibodies tested were mouse cross reactive (FIG. 3).

[2] = target: T1, human cannabinoid receptor type 1 (CB1); assay: cell-based or functional assay
mouse CB-1 = target: T2, mouse CB-1 (mouse, UniProt P47746 1-473); assay: flow cytometry on CHO-Mouse CB1 cells, 3-fold antibody titration from 200 nM
T2 construct: whole, on cells; also called moCB1; moCB1-CHO cells
Description: as §1

[3] = target: T1, human cannabinoid receptor type 1 (CB1); assay: flow cytometry, single point at 30 ug/mL antibody, signal on CHO-huCB-1 cells relative to CHO parental cells

T2 sequence (P47746 whole entry): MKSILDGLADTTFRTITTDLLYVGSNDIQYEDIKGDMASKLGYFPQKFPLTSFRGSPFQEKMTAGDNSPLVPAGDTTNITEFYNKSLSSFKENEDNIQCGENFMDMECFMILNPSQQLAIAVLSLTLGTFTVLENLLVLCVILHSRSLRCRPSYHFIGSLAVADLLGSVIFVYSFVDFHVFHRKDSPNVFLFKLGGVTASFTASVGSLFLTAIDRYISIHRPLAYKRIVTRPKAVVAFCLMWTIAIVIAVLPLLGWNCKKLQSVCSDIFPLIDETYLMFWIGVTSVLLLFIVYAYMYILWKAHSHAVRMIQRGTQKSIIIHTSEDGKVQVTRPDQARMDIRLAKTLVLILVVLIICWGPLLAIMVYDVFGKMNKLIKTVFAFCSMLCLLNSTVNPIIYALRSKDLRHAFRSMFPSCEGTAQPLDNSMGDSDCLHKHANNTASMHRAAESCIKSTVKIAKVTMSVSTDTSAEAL
T1 sequence (P21554 whole entry): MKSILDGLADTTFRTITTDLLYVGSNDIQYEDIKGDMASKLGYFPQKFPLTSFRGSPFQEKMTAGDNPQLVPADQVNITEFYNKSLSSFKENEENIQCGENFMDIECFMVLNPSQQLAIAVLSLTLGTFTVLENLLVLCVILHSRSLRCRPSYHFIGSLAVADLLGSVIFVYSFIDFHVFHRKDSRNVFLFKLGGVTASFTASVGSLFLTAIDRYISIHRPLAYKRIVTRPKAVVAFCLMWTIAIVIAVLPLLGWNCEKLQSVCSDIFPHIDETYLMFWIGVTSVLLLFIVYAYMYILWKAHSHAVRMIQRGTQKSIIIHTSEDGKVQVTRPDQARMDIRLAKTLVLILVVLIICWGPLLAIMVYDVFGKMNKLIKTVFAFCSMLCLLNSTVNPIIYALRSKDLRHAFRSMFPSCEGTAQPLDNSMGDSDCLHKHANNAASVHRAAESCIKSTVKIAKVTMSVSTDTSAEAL

Row | Binder | EC50 [1] | Mean P-ERK (% inhibition) [2] | Mean cAMP (% Amgen) [2] | P-ERK IC50 (nM) Data Set 1 [2] | P-ERK IC50 (nM) Data Set 2 [2] | cAMP EC50 (nM) Data Set 1 [2] | cAMP EC50 (nM) Data Set 2 [2] | cAMP EC50 (nM) Data Set 3 [2] | binding result (mouse CB-1) | binding result [3]
1 | M1 mouse anti-huCB-1 antibody (antibody, V domains shown) VH: QVQLQQSGAELVRPGVSVKISCKGSGYTFTDHALHWVKQSQARSLEWIGIISTYYGDATYNQKFKGKATMTVDKSSSTAYMELARLTSEDSAFYYCARGGLYYGTNYRAMDYWGQGTSVTVSS VL: DIVMTQSQKFMSTSVGDRVSVTCKASQNVGSNVAWYQQKPGQSPKALIYSASYRYSGVPDRFTGSGSGTDFTLTISNVQSEDLAEYFCQQYNNYPFTFGSGTKLEIK | 15.7 nM | 68 % inhibition | 75 % Amgen | 163 nM | 165 nM | 43 nM | 170 nM | 150 nM | no binding (tested: 200 nM) | 
2 | M2 mouse anti-huCB-1 antibody (antibody, V domains shown) VH: EVQLQQSGPELVKPGTSVKISCKASGYTFTDYNMHWVKLGKSLEWIGYFYPDDGGSGYNQKFKGKATLTIDKSSSTAYMELHSLTSEDSAVYYCARGYGNSWGTYWGQGTLVTVSA VL: EIVLTQSPTTMAASPGEKITITCSASSRISSNYLYWYQQKPGFSPKLLIYRTSNLASGVPARFSGSGSGTSYSLTIGTMEAEDVATYYCQQGSSIPYTFGGGTKLEIK | 34.7 nM | 59 % inhibition | 49 % Amgen | 219 nM | 211 nM | 380 nM | 340 nM | 270 nM |  | 
3 | M3 mouse anti-huCB-1 antibody (antibody, V domains shown) VH: QVQLQQSGPELVRPGVSVKISCKGSGYEFTDYALHWVKQSHAETLEWIGLITTYYGDTNYNQKFKGKATMTVDKSSSTAYMELARLTSEDSAIYYCARGGYYYGTDYRYFDVWGAGTTVTVSS VL: DILLTQSPAILSVSPGERVSFSCRASQSIGTNIHWYQQRPNGSPRLLIKYASESISGIPSRFSGSGSGSDFTLSINSVESEDIADYYCQQSITWPLTFGAGTKLELK | 61.6 nM | 59 % inhibition | 71 % Amgen | 296 nM | 534 nM | 290 nM | 290 nM | 330 nM | no binding (tested: 200 nM) | 
4 | M4 mouse anti-huCB-1 antibody (antibody, V domains shown) VH: QVQLQQSGAELVRPGSSVKISCKASGYEFNYYWMNWVKQRPGQGLEWIGQIYPGDGDINYNGKFKGKATLTSDKSSSTVYMQLSSLTSEDSAVYFCSRSKGNPFAYWGQGTLVTVSA VL: DIQMTQTTSSLSASLGDSVTISCRASQGIRNYLNWYQQKPDGTVKLLIYYTSRLHSGVPPRFSGSGSGTDYSLTISNLEQEDLATYFCQQGNTLPYTFGGGTKLEIK | 19.2 nM | 70 % inhibition | 41 % Amgen | 97 nM | 890 nM | 180 nM | 320 nM | 430 nM | no binding (tested: 200 nM) | 
5 | M5 mouse anti-huCB-1 antibody (antibody, V domains shown, The humanized M5-H1 and M5-H2 carry the CDRs of the un-numbered VL, so that one may be the functional light chain) VH: QVHLQQSGAELVRPGSSVKISCKASGYEFSYYWMNWVKQRPGQGHEWIGQIYPGDGDTNYNGKFKGKATLTADKSSSTAYMQLSSLTSEDSAVYFCARGREAAWFAYWGQGTLVTVSA VL: DIVLAQSPASLAVSLGQRATISCRASQSVSSFRYSYLHWYQQKPGQPPRLLIKYASNLESGVPARFSGSGSGTDFTLNIHPVEEEDTATYFCQHSWEIPFTFGSGTKLEIKR | 20.2 nM | 101 % inhibition | 61 % Amgen | 191 nM | 50 nM | 91 nM | 170 nM | 170 nM | no binding (tested: 200 nM) | 
6 | M6 mouse anti-huCB-1 antibody (antibody, V domains shown) VH: EVQLQQSGPELVKPGASVKISCKASGYTFTDYNLHWVKHGKSLEWIGYIYPYDGDTGYKQKFKGKATLTADKSSSTAYMELRSLTCEDSAVYYCARGYGNSWGAYWGQGTLVTVSA VL: EIVLTQSPTTMAASPGEKITITCSATSSISSNYLHWYQQKPGFSPKLLIYRTSNLASGVPARFSGSGSGTSYSLTIGTMEAEDVATYYCQQGSSIPYTFGGGTKLEIK | 43.5 nM | 42 % inhibition | 21 % Amgen | 144 nM | 300 nM | 310 nM | 290 nM | 640 nM |  | 
7 | M7-H8 humanized anti-CB1 antibody (antibody, human IgG1, kappa, L234A L235A, V domains shown) VH: QVQLVQSGAEVKKPGASVKLSCKASSYTFTRYWMNWVRQAPGQGLEWIGMIDPYDSETHYNQKFQGRATLTVDTSTSTAYMELSSLRSEDTAVYFCARSQPRYYAMDYWGQGTTVTVSS VL: DIQMTQSPSSLSASLGDRVTLTCRASQEISGFLSWLQLKPGKTIKRLIYAASSLDSGVPSRFSGSWSGTDYTLTISSLQPEDFADYYCLQYSSYPYTFGGGTKLEIKR |  |  |  |  |  |  |  |  |  | binds
8 | M7-H9 humanized anti-CB1 antibody (antibody, human IgG1, kappa, L234A L235A, V domains shown) VH: QVQLVQSGAEVKKPGASVKVSCKASSYTFTRYWMNWVRQAPGQGLEWMGMIDPYDSETHYNQKFQGRVTMTRDTSTSTVYMELSSLRSEDTAVYYCARSQPRYYAMDYWGQGTTVTVSS VL: DIQMTQSPSSLSASLGDRVTLTCRASQEISGFLSWLQLKPGKTIKRLIYAASSLDSGVPSRFSGSWSGTDYTLTISSLQPEDFADYYCLQYSSYPYTFGGGTKLEIKR |  |  |  |  |  |  |  |  |  | binds
9 | M7-H10 humanized anti-CB1 antibody (antibody, human IgG1, kappa, L234A L235A, V domains shown) VH: QVQLVQSGAEVKKPGASVKVSCKASSYTFTRYWMNWVKQRPGEGLEWMGMIDPYDSETHYNQKFQGKVTMTVDKSSSTVYMELSSLRSEDTAVYFCARSQPRYYAMDYWGQGTTVTVSS VL: DIQMTQSPSSLSASLGDRVTLTCRASQEISGFLSWLQLKPGKTIKRLIYAASSLDSGVPSRFSGSWSGTDYTLTISSLQPEDFADYYCLQYSSYPYTFGGGTKLEIKR |  |  |  |  |  |  |  |  |  | binds
10 | M7-H11 humanized anti-CB1 antibody (antibody, human IgG1, kappa, L234A L235A, V domains shown) VH: QVQLVQSGAEVKKPGASVKVSCKASSYTFTRYWMNWVRQAPGQGLEWMGIIDPYDSETSYAQKFQGRVTMTRDTSTSTVYMELSSLRSEDTAVYYCARSQPRYYAMDYWGQGTTVTVSS VL: DIQMTQSPSSLSASLGDRVTLTCRASQEISGFLSWLQLKPGKTIKRLIYAASSLDSGVPSRFSGSWSGTDYTLTISSLQPEDFADYYCLQYSSYPYTFGGGTKLEIKR |  |  |  |  |  |  |  |  |  | binds
11 | M7-H12 humanized anti-CB1 antibody (antibody, human IgG1, kappa, L234A L235A) heavy: not shown light: DIQMTQSPSSLSASVGDRVTLTCRASQEISGFLSWLQLKPGKAIKRLIYAASSLDSGVPSRFSGSWSGTDYTLTISSLQPEDFADYYCLQYSSYPYTFGGGTKLEIKRTVAAPSVFIFPPSDEQLKSGTASVVCLLNNFYPREAKVQWKVDNALQSGNSQESVTEQDSKDSTYSLSSTLTLSKADYEKHKVYACEVTHQGLSSPVTKSFNRGEC |  |  |  |  |  |  |  |  |  | binds
12 | M7-H13 humanized anti-CB1 antibody (antibody, human IgG1, kappa, L234A L235A, V domains shown) VH: QVQLVQSGAEVKKPGASVKLSCKASSYTFTRYWMNWVRQAPGQGLEWIGMIDPYDSETHYNQKFQGRATLTVDTSTSTAYMELSSLRSEDTAVYFCARSQPRYYAMDYWGQGTTVTVSS VL: DIQMTQSPSSLSASVGDRVTLTCRASQEISGFLSWLQLKPGKAIKRLIYAASSLDSGVPSRFSGSWSGTDYTLTISSLQPEDFADYYCLQYSSYPYTFGGGTKLEIKR |  |  |  |  |  |  |  |  |  | binds
13 | M7-H14 humanized anti-CB1 antibody (antibody, human IgG1, kappa, L234A L235A, V domains shown) VH: QVQLVQSGAEVKKPGASVKVSCKASSYTFTRYWMNWVRQAPGQGLEWMGMIDPYDSETHYNQKFQGRVTMTRDTSTSTVYMELSSLRSEDTAVYYCARSQPRYYAMDYWGQGTTVTVSS VL: DIQMTQSPSSLSASVGDRVTLTCRASQEISGFLSWLQLKPGKAIKRLIYAASSLDSGVPSRFSGSWSGTDYTLTISSLQPEDFADYYCLQYSSYPYTFGGGTKLEIKR |  |  |  |  |  |  |  |  |  | binds
14 | M7-H15 humanized anti-CB1 antibody (antibody, human IgG1, kappa, L234A L235A, V domains shown) VH: QVQLVQSGAEVKKPGASVKVSCKASSYTFTRYWMNWVKQRPGEGLEWMGMIDPYDSETHYNQKFQGKVTMTVDKSSSTVYMELSSLRSEDTAVYFCARSQPRYYAMDYWGQGTTVTVSS VL: DIQMTQSPSSLSASVGDRVTLTCRASQEISGFLSWLQLKPGKAIKRLIYAASSLDSGVPSRFSGSWSGTDYTLTISSLQPEDFADYYCLQYSSYPYTFGGGTKLEIKR |  |  |  |  |  |  |  |  |  | binds
15 | M7-H16 humanized anti-CB1 antibody (antibody, human IgG1, kappa, L234A L235A, V domains shown) VH: QVQLVQSGAEVKKPGASVKVSCKASSYTFTRYWMNWVRQAPGQGLEWMGIIDPYDSETSYAQKFQGRVTMTRDTSTSTVYMELSSLRSEDTAVYYCARSQPRYYAMDYWGQGTTVTVSS VL: DIQMTQSPSSLSASVGDRVTLTCRASQEISGFLSWLQLKPGKAIKRLIYAASSLDSGVPSRFSGSWSGTDYTLTISSLQPEDFADYYCLQYSSYPYTFGGGTKLEIKR |  |  |  |  |  |  |  |  |  | binds
